From PMC3134622 (Biochemistry, 2011)

Target: T1, GST-PBD46 (peptide derivative of p21-activated serine/threonine kinase, PAK Binding Domain 46)
T1 chain: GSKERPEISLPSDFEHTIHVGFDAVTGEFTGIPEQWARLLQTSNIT
Experiment: pull-down

ΔI (pull-down band intensity, wild type:PBD46 relative to T35A:PBD46): 4.2 ± 0.59
B1: Cdc42 wild type (natural protein)
chain: not shown
